Measurements published in publication PMC7862258.

B1: fibulin-3 (F3): N249Q (protein)
parent chain: MLKALFLTMLTLALVKSQDTEETITYTQCTDGYEWDPVRQQCKDIDECDIVPDACKGGMKCVNHYGGYLCLPKTAQIIVNNEQPQQETQPAEGTSGATTGVVAASSMATSGVLPGGGFVASAAAVAGPEMQTGRNNFVIRRNPADPQRIPSNPSHRIQCAAGYEQSEHNVCQDIDECTAGTHNCRADQVCINLRGSFACQCPPGYQKRGEQCVDIDECTIPPYCHQRCVNTPGSFYCQCSPGFQLAANNYTCVDINECDASNQCAQQCYNILGSFICQCNQGYELSSDRLNCEDIDECRTSSYLCQYQCVNEPGKFSCMCPQGYQVVRSRTCQDINECETTNECREDEMCWNYHGGFRCYPRNPCQDPYILTPENRCVCPVSNAMCRELPQSIVYKYMSIRSDRSVPSDIFQIQATTIYANTINTFRIKSGNENGEFYLRQTSPVSAMLVLVKSLSGPREHIVDLEMLTVSSIGTFRTSSVLRLTIIVGPFSF
B2: fibulin-3 (F3): N249Q/R387Q (protein)
parent chain: MLKALFLTMLTLALVKSQDTEETITYTQCTDGYEWDPVRQQCKDIDECDIVPDACKGGMKCVNHYGGYLCLPKTAQIIVNNEQPQQETQPAEGTSGATTGVVAASSMATSGVLPGGGFVASAAAVAGPEMQTGRNNFVIRRNPADPQRIPSNPSHRIQCAAGYEQSEHNVCQDIDECTAGTHNCRADQVCINLRGSFACQCPPGYQKRGEQCVDIDECTIPPYCHQRCVNTPGSFYCQCSPGFQLAANNYTCVDINECDASNQCAQQCYNILGSFICQCNQGYELSSDRLNCEDIDECRTSSYLCQYQCVNEPGKFSCMCPQGYQVVRSRTCQDINECETTNECREDEMCWNYHGGFRCYPRNPCQDPYILTPENRCVCPVSNAMCRELPQSIVYKYMSIRSDRSVPSDIFQIQATTIYANTINTFRIKSGNENGEFYLRQTSPVSAMLVLVKSLSGPREHIVDLEMLTVSSIGTFRTSSVLRLTIIVGPFSF
B3: fibulin-3 (F3): I220F/N249Q (protein)
parent chain: MLKALFLTMLTLALVKSQDTEETITYTQCTDGYEWDPVRQQCKDIDECDIVPDACKGGMKCVNHYGGYLCLPKTAQIIVNNEQPQQETQPAEGTSGATTGVVAASSMATSGVLPGGGFVASAAAVAGPEMQTGRNNFVIRRNPADPQRIPSNPSHRIQCAAGYEQSEHNVCQDIDECTAGTHNCRADQVCINLRGSFACQCPPGYQKRGEQCVDIDECTIPPYCHQRCVNTPGSFYCQCSPGFQLAANNYTCVDINECDASNQCAQQCYNILGSFICQCNQGYELSSDRLNCEDIDECRTSSYLCQYQCVNEPGKFSCMCPQGYQVVRSRTCQDINECETTNECREDEMCWNYHGGFRCYPRNPCQDPYILTPENRCVCPVSNAMCRELPQSIVYKYMSIRSDRSVPSDIFQIQATTIYANTINTFRIKSGNENGEFYLRQTSPVSAMLVLVKSLSGPREHIVDLEMLTVSSIGTFRTSSVLRLTIIVGPFSF
B4: fibulin-3 (F3): D49A/N249Q (protein)
parent chain: MLKALFLTMLTLALVKSQDTEETITYTQCTDGYEWDPVRQQCKDIDECDIVPDACKGGMKCVNHYGGYLCLPKTAQIIVNNEQPQQETQPAEGTSGATTGVVAASSMATSGVLPGGGFVASAAAVAGPEMQTGRNNFVIRRNPADPQRIPSNPSHRIQCAAGYEQSEHNVCQDIDECTAGTHNCRADQVCINLRGSFACQCPPGYQKRGEQCVDIDECTIPPYCHQRCVNTPGSFYCQCSPGFQLAANNYTCVDINECDASNQCAQQCYNILGSFICQCNQGYELSSDRLNCEDIDECRTSSYLCQYQCVNEPGKFSCMCPQGYQVVRSRTCQDINECETTNECREDEMCWNYHGGFRCYPRNPCQDPYILTPENRCVCPVSNAMCRELPQSIVYKYMSIRSDRSVPSDIFQIQATTIYANTINTFRIKSGNENGEFYLRQTSPVSAMLVLVKSLSGPREHIVDLEMLTVSSIGTFRTSSVLRLTIIVGPFSF
B5: fibulin-3 (F3): R140W/N249Q (protein)
parent chain: MLKALFLTMLTLALVKSQDTEETITYTQCTDGYEWDPVRQQCKDIDECDIVPDACKGGMKCVNHYGGYLCLPKTAQIIVNNEQPQQETQPAEGTSGATTGVVAASSMATSGVLPGGGFVASAAAVAGPEMQTGRNNFVIRRNPADPQRIPSNPSHRIQCAAGYEQSEHNVCQDIDECTAGTHNCRADQVCINLRGSFACQCPPGYQKRGEQCVDIDECTIPPYCHQRCVNTPGSFYCQCSPGFQLAANNYTCVDINECDASNQCAQQCYNILGSFICQCNQGYELSSDRLNCEDIDECRTSSYLCQYQCVNEPGKFSCMCPQGYQVVRSRTCQDINECETTNECREDEMCWNYHGGFRCYPRNPCQDPYILTPENRCVCPVSNAMCRELPQSIVYKYMSIRSDRSVPSDIFQIQATTIYANTINTFRIKSGNENGEFYLRQTSPVSAMLVLVKSLSGPREHIVDLEMLTVSSIGTFRTSSVLRLTIIVGPFSF

What was measured:
[1] = anti-FLAG western blot of conditioned media, HEK293A; conditions: glycan lost; for expression_or_secretion, other: relative secretion, % of N249Q F3: control: same variant with N249 glycan (normalised to WT F3), arms normalised to N249Q F3
[2] = anti-FLAG western blot of cell lysate (intracellular level), HEK293A; conditions: glycan lost; control: WT F3

Protein | expression_or_secretion, percent_of_wt ([1]; control: WT F3) | expression_or_secretion, percent_of_wt [2] | expression_or_secretion, other: relative secretion, % of N249Q F3 [1]
B1 | no change | no change | –
B2 | – | – | no change
B3 | – | – | no change
B4 | – | – | no change
B5 | – | – | no change
